Experimental data taken from patent US20120294879A1, “CONSENSUS SEQUENCE FOR INFLUENZA A VIRUS” (priority 2009, published 2012).

Legend:
[1] = tested on: HLA-A2, -A24, -B7, -DR2, -DR3 and -DR4 transgenic mice; assay type: cell-based; design: key to HLA allele this work (HLA restriction by ELISpot): —represents no positive ELISpot response
[2] = tested on: splenocytes of HLA-DR2 (DRB1*1501) transgenic mice; assay type: cell-based; design: key to DR2: average IFN-γ spots forming cells per million splenocytes: — represents no positive ELISpot response
[3] = tested on: splenocytes of HLA-B7 (B*0702) transgenic mice; assay type: cell-based; design: key to B7: average IFN-γ spots forming cells per million splenocytes: — represents no positive ELISpot response
[4] = tested on: splenocytes of HLA-DR3 (DRB1*0301) transgenic mice; assay type: cell-based; design: key to DR3: average IFN-γ spots forming cells per million splenocytes: — represents no positive ELISpot response
[5] = tested on: splenocytes of HLA-DR4 (DRB1*0401) transgenic mice; assay type: cell-based; design: key: — represents no positive ELISpot response
[6] = tested on: splenocytes of HLA-A24 (A*2402) transgenic mice; assay type: cell-based; design: key to A24: average IFN-γ spots forming cells per million splenocytes: — represents no positive ELISpot response
[7] = target: HLA-DR3 (HLA-DRA*0101 and -DRB1*0301), as expressed in HLA-DR3 transgenic mice (human); assay: cell-based or functional assay
[8] = target: HLA-DR4 (HLA-DRA*0101 and -DRB1*0401), as expressed in HLA-DR4 transgenic mice (human); assay: cell-based or functional assay

AGALASCMGLIYNRMGA
HLA allele this work (HLA restriction by ELISpot) [1]: —

FVANFSMELPSFGVSGV
HLA allele this work (HLA restriction by ELISpot) [1]: —

GKGYMFESKSMKLRTQI
DR2: average IFN-γ spots forming cells per million splenocytes [2]: 52 ± 2(1) IFN-γ spots forming cells per million splenocytes
DR2: lowest concentration of peptide giving positive ELISpot response in peptide titration [2]: 52 ± 2(1) μg/ml
B7: average IFN-γ spots forming cells per million splenocytes [3]: —
DR3: average IFN-γ spots forming cells per million splenocytes [4]: —
HLA allele this work (HLA restriction by ELISpot) [1]: DR2
DR4: average IFN-γ spots forming cells per million splenocytes [5]: —
A24: average IFN-γ spots forming cells per million splenocytes [6]: —

GYTMDTVNRTHQYSERG
DR2: average IFN-γ spots forming cells per million splenocytes [2]: —
B7: average IFN-γ spots forming cells per million splenocytes [3]: —
DR3: average IFN-γ spots forming cells per million splenocytes [4]: —
HLA allele this work (HLA restriction by ELISpot) [1]: DR4
DR4: average IFN-γ spots forming cells per million splenocytes [5]: 125 ± 11(0.1) IFN-γ spots forming cells per million splenocytes
A24: average IFN-γ spots forming cells per million splenocytes [6]: —

KTGGPIYKRVDGKWVRE
HLA allele this work (HLA restriction by ELISpot) [1]: DR3

KWMMAMKYPITADKRIT
DR2: average IFN-γ spots forming cells per million splenocytes [2]: —
B7: average IFN-γ spots forming cells per million splenocytes [3]: —
DR3: average IFN-γ spots forming cells per million splenocytes [4]: —
HLA allele this work (HLA restriction by ELISpot) [1]: DR4
DR4: average IFN-γ spots forming cells per million splenocytes [5]: 161 ± 18(0.1) IFN-γ spots forming cells per million splenocytes
A24: average IFN-γ spots forming cells per million splenocytes [6]: —

LEVCFMYSDFHFINEQG
DR2: average IFN-γ spots forming cells per million splenocytes [2]: 64 ± 11(1) IFN-γ spots forming cells per million splenocytes
DR2: lowest concentration of peptide giving positive ELISpot response in peptide titration [2]: 64 ± 11(1) μg/ml
B7: average IFN-γ spots forming cells per million splenocytes [3]: —
DR3: average IFN-γ spots forming cells per million splenocytes [4]: —
HLA allele this work (HLA restriction by ELISpot) [1]: DR2
DR4: average IFN-γ spots forming cells per million splenocytes [5]: —
A24: average IFN-γ spots forming cells per million splenocytes [6]: —

LTIERMVLSAFDERRNK
HLA allele this work (HLA restriction by ELISpot) [1]: —

M1 169-185 peptide of influenza virus A/New York/348/2003 (H1N1)
IFN-γ ELISpot at 10 µg/ml peptide, splenocytes of immunized HLA transgenic mice [7]: 120
lowest concentration of peptide giving positive ELISpot response [7]: 0.1 µg/mL

MDVNPTLLFLKVPAQNA
HLA allele this work (HLA restriction by ELISpot) [1]: —

MSLLTEVETYVLSIVPS
HLA allele this work (HLA restriction by ELISpot) [1]: —

NKMARLGKGYMFESKSM
HLA allele this work (HLA restriction by ELISpot) [1]: —

NP 37-53 peptide of influenza virus A/New York/348/2003 (H1N1)
IFN-γ ELISpot at 10 µg/ml peptide, splenocytes of immunized HLA transgenic mice [7]: 66
lowest concentration of peptide giving positive ELISpot response [7]: 1 µg/mL

NP 103-119 peptide of influenza virus A/New York/348/2003 (H1N1)
IFN-γ ELISpot at 10 µg/ml peptide, splenocytes of immunized HLA transgenic mice [7]: 614
lowest concentration of peptide giving positive ELISpot response [7]: 0.1 µg/mL

NP 109-125 peptide of influenza virus A/New York/348/2003 (H1N1)
IFN-γ ELISpot at 10 µg/ml peptide, splenocytes of immunized HLA transgenic mice [7]: 501
lowest concentration of peptide giving positive ELISpot response [7]: 0.1 µg/mL

NP 408-424 peptide of influenza virus A/New York/348/2003 (H1N1)
IFN-γ ELISpot at 10 µg/ml peptide, splenocytes of immunized HLA transgenic mice [7]: 41
lowest concentration of peptide giving positive ELISpot response [7]: 10 µg/mL

PB1 120-136 peptide of influenza virus A/New York/348/2003 (H1N1)
IFN-γ ELISpot at 10 µg/ml peptide, splenocytes of immunized HLA transgenic mice [7]: 142
lowest concentration of peptide giving positive ELISpot response [7]: 0.1 µg/mL

PB1 126-142 peptide of influenza virus A/New York/348/2003 (H1N1)
IFN-γ ELISpot at 10 µg/ml peptide, splenocytes of immunized HLA transgenic mice [7]: 78
lowest concentration of peptide giving positive ELISpot response [7]: 0.1 µg/mL

PB1 340-356 peptide of influenza virus A/New York/348/2003 (H1N1)
IFN-γ ELISpot at 10 µg/ml peptide, splenocytes of immunized HLA transgenic mice [7]: 175
lowest concentration of peptide giving positive ELISpot response [7]: 0.1 µg/mL

PB1 471-487 peptide of influenza virus A/New York/348/2003 (H1N1)
IFN-γ ELISpot at 10 µg/ml peptide, splenocytes of immunized HLA transgenic mice [7]: 116
lowest concentration of peptide giving positive ELISpot response [7]: 0.1 µg/mL

PB1 507-523 peptide of influenza virus A/New York/348/2003 (H1N1)
IFN-γ ELISpot at 10 µg/ml peptide, splenocytes of immunized HLA transgenic mice [8]: 274
lowest concentration of peptide giving positive ELISpot response [8]: 0.1 µg/mL

PB1 554-570 peptide of influenza virus A/New York/348/2003 (H1N1)
IFN-γ ELISpot at 10 µg/ml peptide, splenocytes of immunized HLA transgenic mice [8]: 76
lowest concentration of peptide giving positive ELISpot response [8]: 0.1 µg/mL
IFN-γ ELISpot at 10 µg/ml peptide, splenocytes of immunized HLA transgenic mice [7]: 166
lowest concentration of peptide giving positive ELISpot response [7]: 0.1 µg/mL

PB1 650-666 peptide of influenza virus A/New York/348/2003 (H1N1)
IFN-γ ELISpot at 10 µg/ml peptide, splenocytes of immunized HLA transgenic mice [8]: 41
lowest concentration of peptide giving positive ELISpot response [8]: 0.1 µg/mL
IFN-γ ELISpot at 10 µg/ml peptide, splenocytes of immunized HLA transgenic mice [7]: 142
lowest concentration of peptide giving positive ELISpot response [7]: 0.1 µg/mL

PB1 656-672 peptide of influenza virus A/New York/348/2003 (H1N1)
IFN-γ ELISpot at 10 µg/ml peptide, splenocytes of immunized HLA transgenic mice [8]: 59
lowest concentration of peptide giving positive ELISpot response [8]: 0.1 µg/mL

PB1 680-696 peptide of influenza virus A/New York/348/2003 (H1N1)
IFN-γ ELISpot at 10 µg/ml peptide, splenocytes of immunized HLA transgenic mice [7]: 181

PB2 42-58 peptide of influenza virus A/New York/348/2003 (H1N1)
IFN-γ ELISpot at 10 µg/ml peptide, splenocytes of immunized HLA transgenic mice [8]: 166
lowest concentration of peptide giving positive ELISpot response [8]: 0.1 µg/mL

PB2 48-64 peptide of influenza virus A/New York/348/2003 (H1N1)
IFN-γ ELISpot at 10 µg/ml peptide, splenocytes of immunized HLA transgenic mice [8]: 161
lowest concentration of peptide giving positive ELISpot response [8]: 0.1 µg/mL

PB2 54-70 peptide of influenza virus A/New York/348/2003 (H1N1)
IFN-γ ELISpot at 10 µg/ml peptide, splenocytes of immunized HLA transgenic mice [7]: 499
lowest concentration of peptide giving positive ELISpot response [7]: 0.1 µg/mL

PB2 126-142 peptide of influenza virus A/New York/348/2003 (H1N1)
IFN-γ ELISpot at 10 µg/ml peptide, splenocytes of immunized HLA transgenic mice [8]: 316
lowest concentration of peptide giving positive ELISpot response [8]: 0.1 µg/mL

PB2 132-148 peptide of influenza virus A/New York/348/2003 (H1N1)
IFN-γ ELISpot at 10 µg/ml peptide, splenocytes of immunized HLA transgenic mice [8]: 311
lowest concentration of peptide giving positive ELISpot response [8]: 0.1 µg/mL

PB2 256-272 peptide of influenza virus A/New York/348/2003 (H1N1)
IFN-γ ELISpot at 10 µg/ml peptide, splenocytes of immunized HLA transgenic mice [7]: 169
lowest concentration of peptide giving positive ELISpot response [7]: 0.1 µg/mL

PB2 369-385 peptide of influenza virus A/New York/348/2003 (H1N1)
IFN-γ ELISpot at 10 µg/ml peptide, splenocytes of immunized HLA transgenic mice [8]: 54
lowest concentration of peptide giving positive ELISpot response [8]: 0.1 µg/mL

PB2 434-450 peptide of influenza virus A/New York/348/2003 (H1N1)
IFN-γ ELISpot at 10 µg/ml peptide, splenocytes of immunized HLA transgenic mice [7]: 444
lowest concentration of peptide giving positive ELISpot response [7]: 0.1 µg/mL

PB2 458-474 peptide of influenza virus A/New York/348/2003 (H1N1)
IFN-γ ELISpot at 10 µg/ml peptide, splenocytes of immunized HLA transgenic mice [8]: 238
lowest concentration of peptide giving positive ELISpot response [8]: 0.1 µg/mL

PB2 464-480 peptide of influenza virus A/New York/348/2003 (H1N1)
IFN-γ ELISpot at 10 µg/ml peptide, splenocytes of immunized HLA transgenic mice [7]: 324
lowest concentration of peptide giving positive ELISpot response [7]: 0.1 µg/mL

TQIQTRRSFEIKKLWDQ
HLA allele this work (HLA restriction by ELISpot) [1]: —
